The values below come from patent US10227575B2, “Multi-domain enzymes having cutinase activity, compositions comprising same and uses thereof” (OZYMES, priority 2015, dated 2019).

Data set [1] is described as follows: pH optimum in Universal Buffer. Format: biochemical. The note with it: pH 5-11, p-nitrophenyl butyrate. As to the method: (§1) Esterase activity was determined by monitoring the formation of pNP at 410 nm from various pNP-esters using a Beckman UV spectrophotometer (model DU 640) (21). Substrates were dissolved in isopropanol and were added to 50 mM sodium phosphate buffer pH 8.0 to give 10% (v/v) total isopropanol concentration in a 1 mL reaction volume. pNP-butyrate was used at a final concentration of 1.2 mM. For pNP-caprylate, myristate and palmitate, the final concentration ranged from 0.1 to 0.5 mM. The reaction (1 mL) was started by adding an appropriate amount of enzyme. One enzyme unit (U) is defined as the amount of enzyme that produced 1 μmol of product (pNP) per min; specific activity is expressed as U/mg protein. A molar extinction coefficient of 15 mM^−1 cm^−1 for pNP is used for calculating enzyme activity.
Universal Buffer solutions were prepared according to Britton and Robinson (Surinenaite et al., 2002), having the selected pH value from 5-11. Activity of KrCUT and KrCUT189 were measured at the indicated pH, using p-nitrophenyl butyrate as substrate as described in Example 1, section 1.6). Curves were obtained by plotting values of activity against pH.

Data set [2] can be described thus: Adsorption assay on PHB granules (Langmuir isotherm). In kind it is binding. As to the method: Purified KrCUT of concentrations ranging from 0.16 to 3.2 mg/mL were mixed with 25 mg PHB in 50 mM sodium phosphate (pH 8.0) in a total volume of 1 mL and mixed by gently shaking for 3 h. The PHB polymer was removed by centrifugation and the concentration of protein in the supernatant was determined by the BCA method. The concentration of bound protein at a particular concentration of cutinase was calculated as the difference between a control without added PHB and free cutinase after incubation with PHB.
Adsorption assays were carried out following procedures of Kasuya et al. (1999). Purified KrCUT and KrCUT189 at concentrations ranging from 0.16 to 3.2 mg/mL were added to a suspension of 25 mg PHB in 50 mM sodium phosphate (pH 8.0) in a total volume 1 mL. The mixture was incubated at room temperature with gentle shaking for at least 3 h. The PHB polymer was removed by centrifugation and the concentration of protein in the supernatant was determined by the BCA method. The concentration of bound protein at a particular concentration of cutinase was calculated as the difference between a control without added PHB and free cutinase after incubation with PHB. An isotherm of [Bound](mg/mg PHB) vs [Free] (mM) was generated and binding parameters were determined by non-linear regression using the Langmuir equation:
[formula] where [E]=Ead+[E]e, is the concentration of the protein added; Emax is the maximum amount of protein adsorbed on the polyester granules, and K is the adsorption equilibrium constant of the protein.

Data set [3] in a line: Substrate range on p-NP esters, KrCUT versus KrCUT189. Format: biochemical. As to the method: as §1
A short description of data set [4]: Degradation of poly(1,3-propylene adipate). The note with it: 2.5 μM, after 24 hours.
The procedure of data set [5]: Molar masses of the samples were determined with universal calibration with the refractive index detector and the viscosity detector. The universal calibration curve was based on polystyrene standards [Polymer Laboratories (Amherst, Mass.) and Aldrich (Oakville, ON)] using the molar masses determined by the manufacturer and the intrinsic viscosities measured by the apparatus. The software OmniSEC™ software from Viscotek was used for data collection and calibration. Separation in THF was performed by injecting 100 μL of 1.5-2 mg/mL solutions of standards or samples into thermostatically controlled SuperRes™ columns [35° C.; PAS-102, PAS102.5, PAS-103L, each 300 mm×8 mm; PolyAnalytik (London, ON)]. The flow rate was 1 mL/min.
Alternatively, a thin film was prepared from 1 g of commercial available PCL pellets and used for degradation. The polymer was dissolved in dichloromethane in a 1 L beaker. The solvent was allowed to evaporate overnight and the resulting film dried to constant weight under reduced pressure. Prior to enzymatic treatment the film was cut into pieces (20 mg) of approximately 1.5 cm×1.5 cm and thickness of approximately 0.1 mm. The reaction mixture was monitored by HPLC and SEC as described above.
To quantify this further, pellets of polycaprolactone (PCL) as well as films of PCL were incubated with KrCUT at various enzyme concentrations (1.25 μM, 2.5 μM, and 5 μM representing 4.7, 9.5 and 19 enzyme Units) at 37° C. The degradation of the polymer was followed over time by analyzing aliquots of the reaction mixture by HPLC for the detection of the released monomer (6-hydroxyhexanoic acid) and characterization of the remaining polymer by SEC after lypholization of the sample.

B1: KrCUT189: truncated KrCUT lacking the T/P-rich linker and polymer-binding domain; cutinase catalytic domain, SEQ ID NO: 2 (protein)
chain: ATCSDVDVVFARGTGETPGLGVVGGPFVRSLTGELSDRTVTSHAVDYAASSSQASAGPGATAMSAHVREVAAACPSTRFVLGGYSQGATVTDIALGIRTGTTTGTPVPAELAGRVAAVVVFGNPLGLSGRTIATASSTYGPKSKDYCNSSDSVCGSAPKTGTGGHLSYASNGSTTDGARFAAGLVRAAG
modifications: Kineococcus radiotolerans; (1)..(189) KrCUT catalytic domain (KrCUT189)
B1 yielded a pH optimum in data set [1] of 8. Also, the “binding to PHB” value in data set [2] is “no binding”. In data set [3], the “activity towards pNB-acetate” value is “little activity”, the “activity towards pNP-myristate compared to KrCUT” value is on record as “higher” and the “activity with various substrates compared to the full length protein” value is “lower activity”. Besides, the “substrate giving the highest activity” value in data set [3] (p-NP esters) is recorded as “pNP-myristate”. Besides, in data set [4], the “adipic acid found in the reaction mixture” value stood at 17%. Besides, in data set [5], the “degradation of PCL pellets and PCL films compared with KrCUT” value is “Nearly identical results”.
